Experimental data taken from patent US20140356384A1 (COLE POLYTECHNIQUE F D RALE DE LAUSANNE EPFL, published 2014).
One block for each binder: values may come before it.

How the values were obtained:
[1] = molecular target: T1, mouse glycophorin-A (GYPA) on the erythrocyte membrane (mouse, UniProt P14220 1-168); experiment: equilibrium binding to mouse erythrocytes by flow cytometry, one-site binding fit
[2] = molecular target: T1, mouse glycophorin-A (GYPA) on the …; experiment: flow cytometry of mouse erythrocytes incubated with the OVA conjugate, OVA detected on the cell surface

Kd [1]: 6.2 nM
B1: ERY1-OVA (ERY1 peptide chemically conjugated to ovalbumin through SMCC) (other)
peptide: WMVLPWLPGTLDGGSGCRG
chain: GSIGAASMEFCFDVFKELKVHHANENIFYCPIAIMSALAMVYLGAKDSTRTQINKVVRFDKLPGFGDSIEAQCGTSVNVHSSLRDILNQITKPNDVYSFSLASRLYAEERYPILPEYLQCVKELYRGGLEPINFQTAADQARELINSWVESQTNGIIRNVLQPSSVDSQTAMVLVNAIVFKGLWEKAFKDEDTQAMPFRVTEQESKPVQMMYQIGLFRVASMASEKMKILELPFASGTMSMLVLLPDEVSGLEQLESIINFEKLTEWTSSNVMEERKIKVYLPRMKMEEKYNLTSVLMAMGITDVFSSSANLSGISSAESLKISQAVHAAHAEINEAGREVVGSAEAGVDAASVSEEFRADHPFLFCIKHIATNAVLFFGRCVSP
modifications: lysine side chains carry SMCC linked to the cysteine of the ERY1 peptide; C-terminal amide (CONH2); cysteine side chain conjugated through SMCC to lysine side chains of OVA
notes: also called ERY1-conjugated protein

binding result [2]: no binding
B2: MIS-OVA (OVA conjugated with the mismatch peptide through SMCC) (other)
peptide: PLLTVGMDLWPWGGSGCRG
chain: B1 chain
modifications: lysine side chains carry SMCC linked to the cysteine of the MIS peptide; C-terminal amide (CONH2); cysteine side chain conjugated through SMCC to lysine side chains of OVA
